In publication PMC3467263, “FXR Controls the Tumor Suppressor NDRG2 and FXR Agonists Reduce Liver Tumor Growth and Metastasis in an Orthotopic Mouse Xenograft Model” (PLoS ONE, 2012):

Molecular target: T1, human FXR^aa187–472 fused to GST (human, UniProt Q96RI1-2 187-472)
T1 construct: Detected in the TR-FRET assay by europium-labelled anti-GST; also called human FXR-LBD; hFXR; source: purified
T1 sequence (looked up): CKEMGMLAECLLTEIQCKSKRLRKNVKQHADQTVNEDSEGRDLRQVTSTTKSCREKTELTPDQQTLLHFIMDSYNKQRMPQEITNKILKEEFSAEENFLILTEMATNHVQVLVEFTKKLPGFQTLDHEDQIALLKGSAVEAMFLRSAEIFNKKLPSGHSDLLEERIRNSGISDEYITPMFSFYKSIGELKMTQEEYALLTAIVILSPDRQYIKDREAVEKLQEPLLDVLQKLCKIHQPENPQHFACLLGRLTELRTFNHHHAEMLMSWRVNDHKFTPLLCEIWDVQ
Experiment: FRET or BRET; homogeneous TR-FRET: biotinylated SRC-1 peptide (0.4 µM), 200 ng streptavidin-allophycocyanin, 6 ng europium-labelled anti-GST and 2.5 ng GST-FXR-LBD in 25 µL of 20 mM Tris/HCl pH 7.5, 5 mM MgCl2, 60 mM KCl, 1 mM DTT, 0.9 g/L BSA; 60 min incubation; FXR agonist (GW4064, PX20606 or PX20350) titrated; duplicates
Conditions: both partners purified

binding result: binds
B1: biotinylated SRC-1 peptide b-[residues removed]-COOH (peptide)
peptide: CPSSHSSLTERHKILHRLLQEGSPS
HELM: PEPTIDE1{[O=C1N[C@H]2[C@H](CS[C@H]2CCCCC(=O)[*:2])N1].C.P.S.S.H.S.S.L.T.E.R.H.K.I.L.H.R.L.L.Q.E.G.S.P.S}$$$$V2.0
SMILES: CC[C@H](C)[C@H](NC(=O)[C@H](CCCCN)NC(=O)[C@H](Cc1c[nH]cn1)NC(=O)[C@H](CCCNC(=N)N)NC(=O)[C@H](CCC(=O)O)NC(=O)[C@@H](NC(=O)[C@H](CC(C)C)NC(=O)[C@H](CO)NC(=O)[C@H](CO)NC(=O)[C@H](Cc1c[nH]cn1)NC(=O)[C@H](CO)NC(=O)[C@H](CO)NC(=O)[C@@H]1CCCN1C(=O)[C@H](CS)NC(=O)CCCC[C@@H]1SC[C@@H]2NC(=O)N[C@@H]21)[C@@H](C)O)C(=O)N[C@@H](CC(C)C)C(=O)N[C@@H](Cc1c[nH]cn1)C(=O)N[C@@H](CCCNC(=N)N)C(=O)N[C@@H](CC(C)C)C(=O)N[C@@H](CC(C)C)C(=O)N[C@@H](CCC(N)=O)C(=O)N[C@@H](CCC(=O)O)C(=O)NCC(=O)N[C@@H](CO)C(=O)N1CCC[C@H]1C(=O)N[C@@H](CO)C(=O)O
notes: Coupled to streptavidin-allophycocyanin through its biotin in the assay
